Measured values published in the supplement of paper PMC10567573.

B1: DLC1 (parent)
chain: NDDSADYQHFLQDCVDGLFKEVKE
B2: DCAF4 (parent)
chain: PGIDRPGMLCSFRIPGAWSCAWSL

Variants of: B1
Experiment: protein stability index of a GFP-peptide fusion (GPS, HEK-293T) (PSI 1-6); higher = more stable
Settings: c terminus: a fixed tail appended
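Further: lentivirally expressed fusions sorted by FACS into six bins by GFP to DsRed ratio, PSI derived from sequencing read proportions per bin multiplied by bin number.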

Variant	protein stability index
NDDSADYQHFLQDCVDGLFDEVKE [K20D]	5.24
NDDSADYQHFLQDCVDGLFWEVKE [K20W]	2.95
NDDSADYQHFLQDCVDGLFSEVKE [K20S]	4.74
NDDSADYQHFLQDCVDGLFEEVKE [K20E]	3.55
NDDSADYQHFLQDCVDGLFPEVKE [K20P]	4.86
NDDSADYQHFLQDCVDGLFHEVKE [K20H]	3.45
NDDSADYQHFLQDCVDGLFFEVKE [K20F]	2.93
NDDSADYQHFLQDCVDGLFQEVKE [K20Q]	3.23
NDDSADYQHFLQDCVDGLFLEVKE [K20L]	2.87
NDDSADYQHFLQDCVDGLFNEVKE [K20N]	3.08
NDDSADYQHFLQDCVDGLFVEVKE [K20V]	3.56
NDDSADYQHFLQDCVDGLFTEVKE [K20T]	4
NDDSADYQHFLQDCVDGLFGEVKE [K20G]	3.84
NDDSADYQHFLQDCVDGLFIEVKE [K20I]	3.05
NDDSADYQHFLQDCVDGLFCEVKE [K20C]	3.38
NDDSADYQHFLQDCVDGLFAEVKE [K20A]	3.35
NDDSADYQHFLQDCVDGLFREVKE [K20R]	2.51
NDDSADYQHFLQDCVDGLFYEVKE [K20Y]	2.88
NDDSADYQHFLQDCVDGLFMEVKE [K20M]	2.68
NDDSADYQHFLQDCVDGIFKEVKE [L18I]	3.73
NDDSADYQHFLQDCVDGWFKEVKE [L18W]	4.64
NDDSADYQHFLQDCVDGMFKEVKE [L18M]	4.47
NDDSADYQHFLQDCVDGPFKEVKE [L18P]	4.93
NDDSADYQHFLQDCVDGNFKEVKE [L18N]	5.43
NDDSADYQHFLQDCVDGAFKEVKE [L18A]	5.02

Variant	protein stability index
NDDSADYQHFLQDCVDGYFKEVKE [L18Y]	3.71
NDDSADYQHFLQDCVDGDFKEVKE [L18D]	5.73
NDDSADYQHFLQDCVDGQFKEVKE [L18Q]	5.2
NDDSADYQHFLQDCVDGVFKEVKE [L18V]	4.53
NDDSADYQHFLQDCVDGKFKEVKE [L18K]	5.3
NDDSADYQHFLQDCVDGTFKEVKE [L18T]	4.96
NDDSADYQHFLQDCVDGHFKEVKE [L18H]	5.37
NDDSADYQHFLQDCVDGRFKEVKE [L18R]	4.58
NDDSADYQHFLQDCVDGFFKEVKE [L18F]	3.33
NDDSADYQHFLQDCVDGSFKEVKE [L18S]	5.03
NDDSADYQHFLQDCVDGEFKEVKE [L18E]	5.3
NDDSADYQHFLQDCVDGCFKEVKE [L18C]	5.13
NDDSADYQHFLQDCVDGGFKEVKE [L18G]	5.6
NDDSADYQHFLQDCVDGLFKEVHE [K23H]	3.88
NDDSADYQHFLQDCVDGLFKEVYE [K23Y]	2.35
NDDSADYQHFLQDCVDGLFKEVWE [K23W]	2.66
NDDSADYQHFLQDCVDGLFKEVFE [K23F]	2.83
NDDSADYQHFLQDCVDGLFKEVGE [K23G]	4.37
NDDSADYQHFLQDCVDGLFKEVEE [K23E]	3.72
NDDSADYQHFLQDCVDGLFKEVSE [K23S]	3.09
NDDSADYQHFLQDCVDGLFKEVIE [K23I]	1.9
NDDSADYQHFLQDCVDGLFKEVVE [K23V]	2.05
NDDSADYQHFLQDCVDGLFKEVRE [K23R]	2.57
NDDSADYQHFLQDCVDGLFKEVQE [K23Q]	2.75
NDDSADYQHFLQDCVDGLFKEVDE [K23D]	4.98

Variant	protein stability index
NDDSADYQHFLQDCVDGLFKEVLE [K23L]	2.06
NDDSADYQHFLQDCVDGLFKEVTE [K23T]	1.65
NDDSADYQHFLQDCVDGLFKEVPE [K23P]	4.57
NDDSADYQHFLQDCVDGLFKEVNE [K23N]	3.37
NDDSADYQHFLQDCVDGLFKEVAE [K23A]	2.56
NDDSADYQHFLQDCVDGLFKEVME [K23M]	2.01
NDDSADYQHFLQDCVDGLFKEWKE [V22W]	4.73
NDDSADYQHFLQDCVDGLFKEQKE [V22Q]	4.37
NDDSADYQHFLQDCVDGLFKEDKE [V22D]	5.46
NDDSADYQHFLQDCVDGLFKEHKE [V22H]	5.31
NDDSADYQHFLQDCVDGLFKECKE [V22C]	4.3
NDDSADYQHFLQDCVDGLFKEIKE [V22I]	2.58
NDDSADYQHFLQDCVDGLFKEPKE [V22P]	4.26
NDDSADYQHFLQDCVDGLFKEKKE [V22K]	5.5
NDDSADYQHFLQDCVDGLFKEAKE [V22A]	4.42
NDDSADYQHFLQDCVDGLFKEYKE [V22Y]	4.05
NDDSADYQHFLQDCVDGLFKENKE [V22N]	5.27
NDDSADYQHFLQDCVDGLFKESKE [V22S]	5.4
NDDSADYQHFLQDCVDGLFKEFKE [V22F]	3.84
NDDSADYQHFLQDCVDGLFKEEKE [V22E]	5.42
NDDSADYQHFLQDCVDGLFKEMKE [V22M]	4.08
NDDSADYQHFLQDCVDGLFKERKE [V22R]	5.08
NDDSADYQHFLQDCVDGLFKETKE [V22T]	4.87
NDDSADYQHFLQDCVDGLFKEGKE [V22G]	5.01
NDDSADYQHFLQDCVDGLFKELKE [V22L]	3.32

Variant	protein stability index
NDDSADYQHFLQDCVDLLFKEVKE [G17L]	1.82
NDDSADYQHFLQDCVDKLFKEVKE [G17K]	2.73
NDDSADYQHFLQDCVDVLFKEVKE [G17V]	2.16
NDDSADYQHFLQDCVDFLFKEVKE [G17F]	2.12
NDDSADYQHFLQDCVDDLFKEVKE [G17D]	4.28
NDDSADYQHFLQDCVDMLFKEVKE [G17M]	2.18
NDDSADYQHFLQDCVDQLFKEVKE [G17Q]	2.44
NDDSADYQHFLQDCVDHLFKEVKE [G17H]	2.37
NDDSADYQHFLQDCVDSLFKEVKE [G17S]	2.58
NDDSADYQHFLQDCVDILFKEVKE [G17I]	2.19
NDDSADYQHFLQDCVDELFKEVKE [G17E]	2.41
NDDSADYQHFLQDCVDNLFKEVKE [G17N]	2.39
NDDSADYQHFLQDCVDPLFKEVKE [G17P]	4.92
NDDSADYQHFLQDCVDWLFKEVKE [G17W]	2.43
NDDSADYQHFLQDCVDYLFKEVKE [G17Y]	2.44
NDDSADYQHFLQDCVDRLFKEVKE [G17R]	2.01
NDDSADYQHFLQDCVDTLFKEVKE [G17T]	2.21
NDDSADYQHFLQDCVDGLFKEVKW [E24W]	1.67
NDDSADYQHFLQDCVDGLFKEVKM [E24M]	2.3
NDDSADYQHFLQDCVDGLFKEVKA [E24A]	2.17
NDDSADYQHFLQDCVDGLFKEVKH [E24H]	1.88
NDDSADYQHFLQDCVDGLFKEVKG [E24G]	3.66
NDDSADYQHFLQDCVDGLFKEVKT [E24T]	2.81
NDDSADYQHFLQDCVDGLFKEVKD [E24D]	2.33
NDDSADYQHFLQDCVDGLFKEVKR [E24R]	2.01

Variant	protein stability index
NDDSADYQHFLQDCVDGLFKEVKV [E24V]	2.69
NDDSADYQHFLQDCVDGLFKEVKF [E24F]	2.11
NDDSADYQHFLQDCVDGLFKEVKN [E24N]	2.5
NDDSADYQHFLQDCVDGLFKEVKK [E24K]	2.2
NDDSADYQHFLQDCVDGLFKEVKQ [E24Q]	2.51
NDDSADYQHFLQDCVDGLFKEVKY [E24Y]	1.66
NDDSADYQHFLQDCVDGLFKEVKS [E24S]	1.91
NDDSADYQHFLQDCVDGLFKEVKL [E24L]	2.36
NDDSADYQHFLQDCVDGLFKEVKC [E24C]	2.33
NDDSADYQHFLQDCVDGLFKEVKI [E24I]	2.1
NDDSADYQHFLQDCVDGLFKEVKP [E24P]	4.54
NDDSADYQHFLQDCVDGLFKHVKE [E21H]	2.42
NDDSADYQHFLQDCVDGLFKGVKE [E21G]	3.51
NDDSADYQHFLQDCVDGLFKQVKE [E21Q]	2.74
NDDSADYQHFLQDCVDGLFKAVKE [E21A]	2.29
NDDSADYQHFLQDCVDGLFKDVKE [E21D]	4.67
NDDSADYQHFLQDCVDGLFKWVKE [E21W]	2.28
NDDSADYQHFLQDCVDGLFKNVKE [E21N]	3.81
NDDSADYQHFLQDCVDGLFKSVKE [E21S]	3.27
NDDSADYQHFLQDCVDGLFKTVKE [E21T]	1.98
NDDSADYQHFLQDCVDGLFKCVKE [E21C]	2
NDDSADYQHFLQDCVDGLFKPVKE [E21P]	3.94
NDDSADYQHFLQDCVDGLFKLVKE [E21L]	1.67
NDDSADYQHFLQDCVDGLFKKVKE [E21K]	2.57
NDDSADYQHFLQDCVDGLFKIVKE [E21I]	3.01

Variant	protein stability index
NDDSADYQHFLQDCVDGLFKRVKE [E21R]	2.55
NDDSADYQHFLQDCVDGLFKYVKE [E21Y]	2.03
NDDSADYQHFLQDCVDGLFKFVKE [E21F]	2.51
NDDSADYQHFLQDCVDGLFKMVKE [E21M]	2.24
NDDSADYQHFLQDCVDGLFKVVKE [E21V]	1.83
NDDSADYQHFLQDCVDGLNKEVKE [F19N]	5.21
NDDSADYQHFLQDCVDGLVKEVKE [F19V]	2.89
NDDSADYQHFLQDCVDGLSKEVKE [F19S]	5.67
NDDSADYQHFLQDCVDGLCKEVKE [F19C]	3.38
NDDSADYQHFLQDCVDGLGKEVKE [F19G]	5.54
NDDSADYQHFLQDCVDGLLKEVKE [F19L]	1.51
NDDSADYQHFLQDCVDGLTKEVKE [F19T]	5.45
NDDSADYQHFLQDCVDGLQKEVKE [F19Q]	5.08
NDDSADYQHFLQDCVDGLYKEVKE [F19Y]	2.94
NDDSADYQHFLQDCVDGLAKEVKE [F19A]	5.02
NDDSADYQHFLQDCVDGLIKEVKE [F19I]	2.72
NDDSADYQHFLQDCVDGLEKEVKE [F19E]	4.54
NDDSADYQHFLQDCVDGLDKEVKE [F19D]	5.61
NDDSADYQHFLQDCVDGLPKEVKE [F19P]	5.17
NDDSADYQHFLQDCVDGLKKEVKE [F19K]	5.25
NDDSADYQHFLQDCVDGLWKEVKE [F19W]	2.96
NDDSADYQHFLQDCVDGLRKEVKE [F19R]	4.46
NDDSADYQHFLQDCVDGLMKEVKE [F19M]	3.72
NDDSADYQHFLQDCVDGLHKEVKE [F19H]	4.82

Variants of: B2
Experiment: as above
Settings: c terminus: a fixed tail appended

Variant	protein stability index
PGKDRPGMLCSFRIPGAWSCAWSL [I3K]	2.3
PGDDRPGMLCSFRIPGAWSCAWSL [I3D]	1.96
PGHDRPGMLCSFRIPGAWSCAWSL [I3H]	2.39
PGADRPGMLCSFRIPGAWSCAWSL [I3A]	2.91
PGFDRPGMLCSFRIPGAWSCAWSL [I3F]	2.26
PGMDRPGMLCSFRIPGAWSCAWSL [I3M]	2.5
PGLDRPGMLCSFRIPGAWSCAWSL [I3L]	3.31
PGGDRPGMLCSFRIPGAWSCAWSL [I3G]	1.51
PGEDRPGMLCSFRIPGAWSCAWSL [I3E]	4.15
KGIDRPGMLCSFRIPGAWSCAWSL [P1K]	1.96
SGIDRPGMLCSFRIPGAWSCAWSL [P1S]	3.17
GGIDRPGMLCSFRIPGAWSCAWSL [P1G]	3.67
MGIDRPGMLCSFRIPGAWSCAWSL [P1M]	3.39
NGIDRPGMLCSFRIPGAWSCAWSL [P1N]	3.47
DGIDRPGMLCSFRIPGAWSCAWSL [P1D]	2.31
AGIDRPGMLCSFRIPGAWSCAWSL [P1A]	1.93
TGIDRPGMLCSFRIPGAWSCAWSL [P1T]	3.59
YGIDRPGMLCSFRIPGAWSCAWSL [P1Y]	3.48
RGIDRPGMLCSFRIPGAWSCAWSL [P1R]	2.46
LGIDRPGMLCSFRIPGAWSCAWSL [P1L]	3.17

Variant	protein stability index
HGIDRPGMLCSFRIPGAWSCAWSL [P1H]	2.96
QGIDRPGMLCSFRIPGAWSCAWSL [P1Q]	3.03
CGIDRPGMLCSFRIPGAWSCAWSL [P1C]	2.36
PHIDRPGMLCSFRIPGAWSCAWSL [G2H]	3.15
PQIDRPGMLCSFRIPGAWSCAWSL [G2Q]	2.39
PWIDRPGMLCSFRIPGAWSCAWSL [G2W]	1.83
PYIDRPGMLCSFRIPGAWSCAWSL [G2Y]	3
PSIDRPGMLCSFRIPGAWSCAWSL [G2S]	2.55
PFIDRPGMLCSFRIPGAWSCAWSL [G2F]	1.6
PCIDRPGMLCSFRIPGAWSCAWSL [G2C]	3.1
PIIDRPGMLCSFRIPGAWSCAWSL [G2I]	2.26
PDIDRPGMLCSFRIPGAWSCAWSL [G2D]	3.96
PVIDRPGMLCSFRIPGAWSCAWSL [G2V]	1.85
PMIDRPGMLCSFRIPGAWSCAWSL [G2M]	3.72
PLIDRPGMLCSFRIPGAWSCAWSL [G2L]	2.54
PKIDRPGMLCSFRIPGAWSCAWSL [G2K]	2.19
PRIDRPGMLCSFRIPGAWSCAWSL [G2R]	3.78
PPIDRPGMLCSFRIPGAWSCAWSL [G2P]	1.94
PTIDRPGMLCSFRIPGAWSCAWSL [G2T]	2.59
